From the DeepSol protein solubility set

Experiment: soluble on expression in E. coli; label from the status in PepcDB or PDB records

| Sequence | soluble on expression in E. coli |
| --- | --- |
| MPRLENTIDIKVPVNIAYNQWTQFETFPNFMSSVLQVKQLDDSHVWWQVEIGGHAIEWETEIIEQVPDDHIAWRSVSGPRHLGLVSFKHVDIHATRVHVEIEYEADMKAEVSATMTGLLEQKISEALTCYRQLLESRKRPAGGWRGRIAVGTDNAVRHLEHHHHHH | soluble |
| MPRPGKDSYDEQKPPYSYIWLTYMAIQDSDDKMLPLTEIYKYIMDRFPFYRKNTQRWQNSLRHNLSFNDCFIKIPRRADRPGKGSYWAVHPNASGMFENGSCLRRRKRFRARGGQDDDDDDFHHPAPSKISRKNPLPLLPEPPITPPLLSSLFPNLPPSLPNFCLFPPGMDPTKSLLLNPLSLLLMPHFLKNSSNFESSTPHSETSEISGSGSSSSKTPTPEAGFNSSFSIESILSS | not soluble |
| MPRRAPAFPLSDIKAQMLFANNIKAQQASKRSFKEGAIETYEGLLSVDPRFLSFKNELSRYLTDHFPANVDEYGRVYGNGVRTNFFGMRHMNGFPMIPATWPLASNLKKRADADLADGPVSERDNLLFRAAVRLMFSDLEPVPLKIRKGSSTCIPYFSNDMGTKIEIAERALEKAEEAGNLMLQGKFDDAYQLHQMGGAYYVVYRAQSTDAITLDPKTGKFVSKDRMVADFEYAVTGGEQGSLFAASKDASRLKEQYGIDVPDGFFCERRRTAMGGPFALNAPIMAVAQPVRNKIYSKYAYTFHHTTRLNKEEKVKEWSLCVATDVSDHDTFWPGWLRDLICDELLNMGYAPWWVKLFETSLKLPVYVGAPAPEQGHTLLGDPSNPDLEVGLSSGQGATDLMGTLLMSITYLVMQLDHTAPHLNSRIKDMPSACRFLDSYWQGHEEIRQISKSDDAMLGWTKGRALVGGHRLFEMLKEGKVNPSPYMKISYQHGGAFLGDILLYDSRREPGSAIFVGNINSMLNNQFSPEYGVQSGVRDRSKRKRPFPGLAWASMKDTYGACPIYSDVLEAIERCWWNAFGESYRAYREDMLKRDTLELSRYVASMARQAGLAELTPIDLEVLADPNKLQYKWTEADVSANIHEVLMHGVSVEKTERFLRSVMPR | soluble |
| MPRRRGSSSSSSAAGGSGGGGGFGFSSLRRELHLHNFFRTSSPSASSTSRTPPAALPPRTSAVTIPGSNHKLTSSASSYHPPRELTVSTFSAGSATAADGLGGAHLTPSLSSSVHARRESFLYRASDDLREASSLRPVSRASSIASNEHGYVILYIFL | not soluble |
| MPRSSLRLLAKPLLESRRGFCTSSDKIVASVLFERLRVVIPKPDPAVYAFQEFKFNWQQQFRRRYPDEFLDIAKNRAKGEYQMDYVPAPRITEADKNNDRKSLYRALDKKLYLLIFGKPFGATSDKPVWHFPEKVYDSEPTLRKCAESALKSVVGDLTHTYFVGNAPMAHMAIQPTEEMPDLPSYKRFFFKCSVVAASKYDISNCEDFVWVTKDELLEFFPEQAEFFNKMIIS | soluble |
| MPRTHGYAPIGKRCHGKCNWHARGRINVIGALIGKCLLTVGLFKNNIDADTFLGWTIHDLLPKLPPASIVVMDNATFRKRQDIQNVITRGGHTLEYLPAYSPDLNPIEHKWAQTKAVRKQQNQTVEQLFKIESFYVT | not soluble |
| MPRWRSAVEGLMLNRVVEQLTAQLPARNLGWVFPDETTAALLLDGPDGQPLGNLVLGYRPPQPVLFLSRERLRGDPHNPFQRLLATRVRGELLKIEQFKLDRVVALHFGPAEGFIDQPPARLLFEVTGRNANLLVMEEGEGFAGRITLAAREITGSRNRFRTIRSGGPYTPPPPYDKFDPRTMTPADAQTLAGVPLSEWRGRVDGLGPMLSAELARRAEMRPSQAPGDDWERAYDALKSLVADPSVSEGTLSEGAREAARQEKAGALRKLLREPLEKRVTLLENQLGDVTRAEEGVEIAAQDRAEADLLMAYAQTVEPGAASALLPSFDGEGEVPVSLEPQLSAVQNAEKRYARARRRDEVYLRLAEREGSIRSELEAARERLHRLDHAELEQLEQLASDLEREKPERS | not soluble |
| MPSRKFADGEVVRGRWPGSSLYYEVEILSHDSTSQLYTVKYKDGTELELKENDIK | soluble |
| MPSSDPTQSSGFAGLRSTSWPVLGILSFGEELSGYDLKKWASYSVRFFYWSPSFSQVYSELKKLEDLGYVTSRTVVDDEARVKPKRLYKITDAGMAVMRSWAREAPIDPPVLKHGVMLRMWLGHLTEPEQLKDALKEHISYVEGMSRQAALDARDSDVEPTWAFAHMVNKWSERYYAAESELAKQMLADIDEAVERMHGEGTPEHPGVPKPTASHSIRRSREAQKEYQAAMKAAQDADDEAERED | not soluble |
| MPSSNSVVPPFDARNLEIKTKSIEQTLIPLVTQITTLVNYKESYMASGKPKSERAMRAALKIGSAVEAAIERFVCVGETIADENADIQPEMYDACTEARLAGASMANLSCACNDDPNSVVDKAVLVRASRQLLSSVTRVLLLADRVLVKQVLRAEDKIAFSLSRLESTRSFNDFVKVFAVFGGEMVELAHRSGDRQHDLKSEKRKAQMSIARTSLERLTMLLLTASKTYLRHPDCDSALQCRDGVFYQMKLSLELIAICVCDGILTTEKSRYIQDEPDMPIDIALQLTANAAIKQLTEMLEMIRMTVRVGAGVRERIVSALDALCQLTQDFTDSAYTPHHQREQILDFLEECRFEMTNLIQPDENEQLAASGLEVTVERLNRRLKDLSKQLQIVAMEQISEVLRANEDQVLLSSMKACAVSGDIDGVEKYMHKFREHADHMQEVCRLLHHISITDALHVHTGHVERNMRALAPLTILAGRTLCVHPSSRIARENLEVFCDTWGQAVNDLSRVAKESDVAANGRVAAEKQAYMSLPRPGVSKSSCRRSVPKHDAASSSSSNELLPNGGRHPKQVGIAPTRVVSQTGDEASSDEEQVDKQEIEAFQYRISLIIDDLQSDVEGGTHGR | not soluble |
| MPSSVELSVQAGLEHFDAAQWDALAGPQPFVRHAFLRALHDTGCASPGTGWTPCFLALRRAGLLAGAVPLYAKSHSRGEYVFDYAWADAYARNGLPYYPKLLSAVPFTPVGGARLLAHTHADRLLLARGLIQLARQFEVSSLHVLFPSDDDLLALREAGYLIRAGVQFHWRNAGYAGFDDFLAAFSHDKRKKIRQDRKKVAAERVSFRWLRGADIDAAALDFFYQCYRHTYLAHGNPPYLNLEFFRQLHAEMPDALVLILAEQDGQPVAAALNLQADGVLYGRYWGARRYIPGLHFETCYLQSIEYCIAHGQASFEGGAQGEHKMARGLLPTPTWSAHWIADTRFAAAIDDFLGHETHAIDEYRDELATHSPFRKT | not soluble |
| MPSTADTVEVDFITPRHLAGGGDPAWITVPLHRACGWSHGHDPLMPRALLSSPDQKALLRLEPDPDGQWWTLNHTAESGRPAWYASFGARTPVELIAAFTDALTAPAPPTDAPCDPFEPLRQIAWSAPAVGADGLVSPDGTAYVQRQGSADGPGAWFVTVTLGPRPVWQARFDAHTPEHLVAAFTTALADPKPALRTDSGRSLPTRNPNVVTRKTTDVLAVDIAGALEERVQTLTTRHPLPPANPMPPTPPPTRHGRSRLEHHHHHH | soluble |
| MPSYKLTYFNARGYGEAARILFHLADVPFEDFRMTHGDGTWEKLKEKTPLGQVPVLSVDGFEIPQSAAIIRYLANKFGYAGKTPEEQAWADAIVDQFKDFMGSFREVGKAHAAGKPAEEIAKIMQSDVVPARDAFFVIINGILEKSKSGFLVGDGLTFADIVVVECITTLDKNQLFTPAGEPKLVALREKVYAIPAIKKWVEIRPDTQY | not soluble |
| MPTENELKIYLKRWDKKYGLTYKVLDILQTVFYRSDATREAFVEMCGDLDVQKLTFDSYLYKTVVPANPITQLKITAKTIGSLIRGNALAPLEHHHHHH | not soluble |
| MPTERPTTTAPVSLRERRRTAAAREILDAAEQHIGEHGPAALSLRAVARGLGMTVQALYHYFPNRDALVTALITKAYGELSDVLQAAADSVRADPATPRPVAVAEAYRGWGVARPEHFQLLYGTPLRYYAAPAEGPTTQAVRRMGAIFQRELFAGFTPAQLAAAEVPALSPSYREHLEQLPMHAQGDLPPAAASLFLSAWGHVHGLVVLEVFGHTAFLGDHQAEVFRTSVRMMLEDIHRRIPAA | not soluble |
| MPTFTLRPYTEADEDPAIALWLRTWQLAYPAIDFTKRVDWWRERWRTELVPQAAIIVAEQDSALIGFVTIDAVGYLDQLVVEPEHWGWGVAEALVDEAKQRSPTEVTLKVNADNYRAIKFYRRNGFAVTSEELNSSGRPVLNMLWRPA | not soluble |
| MPTITTKTPVKGLIFNIQKFSINDGPGIRTVVFFKGCPLRCKWCSNPESQSGEQESMYDEQTAKQTIVGDYMTVDDIMKVILQDKDFYEESGGGVTFSGGEVLFQASFAIELAKAVKAAGINLACETTGYARPKVFNEFMSYMDFMYYDCKQWDPAQHRIGTGADNGVILRNLATAVQAHQKMMVRIPVIPGFNYTLNDADHFGQLFNQIGVTEVELLPFHQFGLKKYQDLGRKYALVNVKQLQADDLIDYAEHIRAHGVKVRVNGW | not soluble |
| MPTPCYISITGQTQGNITAGAFTADSVGNIYVQGHEDEMLVQEFLHNVTVPTDPQSGQPAGQRAHKPFIFTVALNKAVPLMYNALASGEMLPTTELHWWRTSVEGKQEHYFTTRLTDSTIVDMKLHMPHCQDPAKREFTQLLEVSLAYRKIEWEHVKSGTSGADDWRAPLEA | soluble |
| MPTPFRDLHNKSNASASSYETAWSSSFSSRRSTNNDSKSNLKEIKDEPISNLDESISILENNISMMSVSSPTPAYRTPARVIAREAPMTPGDRLLQKIEKEDERDMLRQLYPEMFDSNQKPRQKPKEVKKALKVESLSDYENDDKENVPPCGKPSKEKEEKKQRTKKIVISSDSEDDGNFENYLKTLREKPTEPAKPERKIPVKKDFVVDDDYISEESSEEESEEEEEDVDDEEYRESSPEVEAKISYSDRKQKKRPTDEEEWFLLSLSEKFSGPIHEDAKVYIKETSLRYKKHRESLLTRLQDILVRRIFSAIPSEKLKVIWNARLRKSAGQCRNHSNGNSTVEMSPVVCTTAERVRDTLIHELCHAATWVVDRLHKEGHGPGWKRWGARCSSVFKSLPFIERCHSYEIEAKFFYVCEKDGCDVEIKRQSKSLDTSRKACGRCFGRFILYRYCRRTNTRIRIEDPKAKPVGPILSNSSKPSPPAPRRIVSEHPEGFKEYSEEHYWKYTAQGLKHSDVMGKLLKEFKELKQL | not soluble |
| MPTPKAFALLGPTAGGKTALALKIAETLPVEIISLDSALVYRDMDIGTAKPSASERAFVPHHLIDIIPPTESYSAARFVEDCTRLVGEISSRGRFALIVGGTMMYFRALTQGLNDLPEADACLRADLDEQKQMYGLDFLYRTLQKVDPETACRLKPNDSQRIGRALEVYYLTGKPMSTHLGSLTSHTLPFDLHTAALIPENRARLHENIALRFHLMLEQGFIGEVENLRRRYPGLTAYSPAIRCVGYRQAWKYLDGKTDFPAFVEKGIAATRQLAKRQLTWLRKTPLDCVADPFSDCTSCTRLIEAAKRFFGA | not soluble |
